Laboratory results reported in patent US7521540B2, “CYR61 compositions and methods” (Munin Corporation, priority 1996, dated 2009).

Tests used:
[1] = test system: cornea; assay: Cornea assay for angiogenic factors; assay type: in vivo, rat; settings: for angiogenic effect in cornea assay: rat, in vivo
Source text: Another assay for modulators of angiogenesis is an in vivo assay for assessing the effect of a suspected modulator in the presence of an ECM signaling molecule-related biomaterial, such as Cyr61, on angiogenesis is the Cornea Assay. The Cornea Assay takes advantage of the absence of blood vessels in the cornea, which in the presence of an angiogenic factor, results in the detectable development of capillaries extending from the sclera into the cornea. Friedlander et al., Science 270:1500-1502 (1995). This ingrowth of new blood vessels from the sclera can be microscopically monitored. Further, the visually determined rate of migration can be used to assess changes in the rate of angiogenesis. These cornea assays may be performed using a wide variety of animal models. Preferably, the cornea assays are performed using rats. By way of example, an assay for suspected modulators of Cyr61 using this assay is disclosed. To perform this assay, Cyr61 is initially titrated using primary capillary endothelial cells to determine effective concentrations of Cyr61. Subsequently, Cyr61, in the presence or absence of a suspected modulator, is surgically implanted into the corneas of mammalian laboratory animals, e.g., rabbits or rats. In a preferred embodiment, Cyr61 (or Cyr61 and a suspected modulator) is embedded in a biocompatible matrix, using matrix materials and techniques that are standard in the art. Subsequently, eyes containing implants are visually observed for growth of the readily visible blood vessels within the eye. Control implantations may consist of physiologically balanced buffers embedded in the same type of matrix and implanted into eyes of the same type of laboratory animal receiving the Cyr61-containing implants.
Although rats of various sizes can be used in the cornea assay, a preferred size for the rats is 150-200 g/animal. Anesthesia is induced with Methoxyflurane and is maintained for 40-60 minutes with sodium pentobarbital (50 mg/kg, delivered intraperitoneally). The eyes are gently opened and secured in place by clamping the upper eyelid with a non-traumatic hemostat. Two drops of sterile proparacaine hydrochloride (0.5%) are then placed on each eye as to effect local anesthesia. Using a suitable surgical blade such as a No. 11 Bard Parker blade, an approximately 1.5 mm incision is made approximately 1 mm from the center of the cornea. […] Once the cornea pocket is made, the spatula is removed and the distance between the limbus and base of the pocket is measured to make sure the separation is at least about 1 mm. […]
Following surgery, animals are examined daily for seven days with the aid of a stereomicroscope to check for inflammation and responses. […] During this seven day period, animals are monitored for implant position and corneal exudate. […]

[2] = test system: NIH 3T3 fibroblasts; assay: Thymidine incorporation (mitogen potentiation), NIH 3T3; assay type: cell-based, mouse
Description: More specifically, NIH 3T3 fibroblast cells were plated on 24-well plates at 3×10^4 cells/well and grown in DMEM with 10% fetal bovine serum (Intergen Co., Purchase, N.Y.) for 3-4 days and incubated with medium containing 0.2% FBS for the following 48 hours. The following compounds, at the parenthetically noted final concentrations, were then added to the plated cells in fresh DMEM containing 0.2% fbs and [^3H]-thymidine (1 μCi/ml final concentration; ICN Biomedicals, Inc., Costa Mesa, Calif.): bFGF (15 ng/ml), PDGF-BB (30 ng/ml), and murine Cyr61 (0.5-5 μg/ml). These compounds were added to individual plates according to the following pattern: 1) no supplementation; 2) murine Cyr61; 3) bFGF; 4) murine Cyr61 and bFGF; 5) PDGF-BB; and 6) murine Cyr61 and PDGF. After 18-20 hours of incubation, cells were washed with PBS and fixed with 10% trichloroacetic acid. DNA was dissolved in 0.1 N NaOH and thymidine incorporation was determined. […] Without any supplements, 3T3 cells incorporated approximately 1.8×10^4 cpm of [^3H]-thymidine, in the presence or absence of Cyr61. Cells exposed to bFGF alone incorporated about 1.2×10^5 cpm; cells contacting bFGF and murine Cyr61 incorporated 2×10^5 cpm. Cells receiving PDGF-BB incorporated about 1.2×10^5 cpm; and cells exposed to PDGF-BB and murine Cyr61 incorporated approximately 2.4×10^5 cpm.
DNA synthesis for HUVE cells and NIH 3T3 fibroblasts was measured by thymidine incorporation as described previously (Kireeva et al., [1996]) with minor modifications. HUVE cells were grown in 24-well plates to a subconfluent state, serum-starved for 24 hours and treated with F12K medium containing 10% fetal bovine serum (FBS), 1 μCi/ml [^3H]-thymidine and 10 ng/ml basic Fibroblast Growth Factor (bFGF) (Gibco-BRL, Inc.) with various concentrations of Cyr61 and Fisp12 as indicated. NIH 3T3 fibroblasts were grown to subconlfluence, serum-starved for 48 hours, and treated with Minimal Essential Medium (MEM) containing 0.5% FBS, 1 μCi/ml [^3H]-thymidine, bFGF and various concentrations of Cyr61 or Fisp12. Thymidine incorporation into the trichloroacetic acid-insoluble fraction was determined after 24 hour incubation. Logarithmically grown mink lung epithelial cells (Mv1lu, CCL64) were treated with various concentrations of TGF-β1 (Gibco-BRL) and 2 μg/ml of Cyr61 or Fisp12 for 18 hours; [^3H]-thymidine was then added to 1 μCi/ml for 2 hours. Thymidine incorporation was determnined as described above.

| Molecule | eyes showing blood vessel growth after seven days ([1]; FGF 0.15 μM (six animals), Cyr61 1 μg/ml (seven animals)) | angiogenic effect in cornea assay [1] | [3H]-thymidine incorporation with PDGF-BB ([2]; PDGF-BB 30 ng/ml plus murine Cyr61 0.5-5 μg/ml) | [3H]-thymidine incorporation with bFGF ([2]; bFGF 15 ng/ml plus murine Cyr61 0.5-5 μg/ml) | minimum concentration for enhancement of bFGF- or PDGF-BB-induced thymidine incorporation ([2]; either cell type (NIH 3T3 or HUVE)) [µg/mL] | [3H]-thymidine incorporation, no growth factor ([2]; presence or absence of Cyr61) | enhancement of FGF-induced DNA synthesis ([2]; NIH 3T3 fibroblasts) | mitogenic activity by itself ([2]; any tested assay conditions) |
| --- | --- | --- | --- | --- | --- | --- | --- | --- |
| Cyr61: Cysteine-rich ECM signaling protein; murine sequence SEQ ID NO:2, recombinant from Baculovirus-infected Sf9 cells (protein, listed as Mus musculus) MSSSTFRTLAVAVTLLHLTRLALSTCPAACHCPLEAPKCAPGVGLVRDGCGCCKVCAKQLNEDCSKTQPCDHTKGLECNFGASSTALKGICRAQSEGRPCEYNSRIYQNGESFQPNCKHQCTCIDGAVGCIPLCPQELSLPNLGCPNPRLVKVSGQCCEEWVCDEDSIKDSLDDQDDLLGLDASEVELTRNNELIAIGKGSSLKRLPVFGTEPRVLFNPLHAHGQKCIVQTTSWSQCSKSCGTGISTRVTNDNPECRLVKETRICEVRPCGQPVYSSLKKGKKCSKTKKSPEPVRFTYAGCSSVKKYRPKYCGSCVDGRCCTPLQTRTVKMRFRCEDGEMFSKNVMMIQSCKCNYNCPHPNEASFRLYSLFNDIHKFRD | all seven | confirm the effect of angiogenic factors | approximately 2.4×10^5 cpm | 2×10^5 cpm | 0.5 to 1.0 | approximately 1.8×10^4 cpm |  |  |
| Fisp12: Cysteine-rich murine protein, SEQ ID NO:6, mouse ortholog of CTGF (protein, listed as Mus musculus) MLASVAGPISLALVLLALCTRPATGQDCSAQCQCAAEAAPHCPAGVSLVLDGCGCCRVCAKQLGELCTERDPCDPHKGLFCDFGSPANRKIGVCTAKDGAPCVFGGSVYRSGESFQSSCKYQCTCLDGAVGCVPLCSMDVRLPSPDCPFPRRVKLPGKCCKEWVCDEPKDRTAVGPALAAYRLEDTFGPDPTMMRANCLVQTTEWSACSKTCGMGISTRVTNDNTFCRLEKQSRLCMVRPCEADLEENIKKGKKCIRTPKIAKPVKFELSGCTSVKTYRAKFCGVCTDGRCCTPHRTTTLPVEFKCPDGEIMKKNMMFIKTCACHYNCPGDNDIFESLYYRKMYGDMA |  | confirm the effect of angiogenic factors |  |  |  |  | enhance DNA synthesis induced by fibroblast growth factor | did not exhibit any mitogenic activity |
